This is an account of results in patent US20040005647A1 (University of California, published 2004).

Values joined by “and” are separate entries in the source; they are usually repeats but may differ in a detail not shown here. Identical values can stand only once.

The target in experiment [1] is T1, MUC-1 antigen expressed on MCF-7 human breast adenocarcinoma cells (human, UniProt P15941 24-1255).
T1 construct: whole, on cells; Scatchard analysis and immunocytochemistry used MCF-7 cells; also called MUC-1 mucin; MUC-1 membrane antigen
Briefly: competitive ELISA: scFv on plated MCF-7 lysate, soluble MCF-7 lysate (MUC-1) as competitor at 1 nM. How it is done:
(§1) Competitive ELISA analysis was performed in triplicate at each concentration. Incubations were carried out at 37EC for 1.5 hrs. Following each incubation, the plates were washed with PBS pH 7.4 containing 0.5% Tween 20 followed by PBS washes alone. Pro-Bind™ ELISA assay plates (Becton Dickinson Labware, Franklin Lakes, N.J.) were coated overnight at room temperature with the MCF-7 cell lysate (200 μg/well) in 15 mM sodium bicarbonate buffer pH 9.6. The ELISA plates were rinsed with PBS and blocked with PBS containing 3.0% dried non-fat milk for 1 hr. at room temperature. Ten percent bovine serum albumin (BSA) was used as a negative control. In a separate plate, soluble scFv containing 10% Tween 20 were prepared and stored on ice for 15 minutes. MCF-7 cell Tysate used as the competitor was diluted in 3% non-fat milk to provide the following concentrations 100 nM, 10 nM and 1 nM. The soluble scFv was transferred to the ELISA plate and incubated with the competitor. 100 μl of anti-E-tag diluted 1:250 in 3% non-fat milk solution was added to the wells and the plate incubated. The plate was developed with 2,2′-Amino-bis-3-ethylbenzthiazoline-6-sulfonic acid (ABTS) (Sigma-Aldrich, St. Louis, Mo.) containing 0.3% H₂O₂. The plate was read using a microplate reader at an absorbency of A₄₀₅ nM (Dynex, Chantilly, Va.). Data was generated from three separate trials and analyzed.

Experiment [2] has as its target T1, MUC-1 antigen expressed on MCF-7 human …. As to the kind of experiment: competitive ELISA regression, third experiment (not statistically significant). As to the method: as §1
(An ELISA detects its analyte on a solid surface through an enzyme-linked reagent.)

For experiment [3] the target is unchanged. Briefly: competitive ELISA regression, second experiment. As to the method: as §1
For experiment [4] the target is unchanged. As to the kind of experiment: immunohistochemistry on a section of the same prostate cancer; biotinylated anti-mouse antibody and colour reagent. An excerpt: FIG. 4 illustrates staining of prostate cancer using three of the scFv described herein. The scFv is placed on the tissue on the slide and then washed off followed with a biotinylated anti mouse antibody for reaction with any bound scFv and then with a color reagent.

Experiment [5] shares this target. Briefly: linear regression of competitive ELISA data. How it is done:
as §1

Experiment [6] has the same target. Briefly: competitive ELISA regression, estimates of single experiments. As to the method:
as §1

Experiment [7] has the same target. Briefly: Scatchard analysis, 125I-12E scFv on MCF-7 cells with unlabeled competitor; 42 kD fraction, diabody (divalent).
Experiment [8] shares this target. As to the kind of experiment: Scatchard analysis, 125I-12E scFv on MCF-7 cells with unlabeled competitor; 25 kD fraction, monovalent.

T1 sequence (P15941 24-1255): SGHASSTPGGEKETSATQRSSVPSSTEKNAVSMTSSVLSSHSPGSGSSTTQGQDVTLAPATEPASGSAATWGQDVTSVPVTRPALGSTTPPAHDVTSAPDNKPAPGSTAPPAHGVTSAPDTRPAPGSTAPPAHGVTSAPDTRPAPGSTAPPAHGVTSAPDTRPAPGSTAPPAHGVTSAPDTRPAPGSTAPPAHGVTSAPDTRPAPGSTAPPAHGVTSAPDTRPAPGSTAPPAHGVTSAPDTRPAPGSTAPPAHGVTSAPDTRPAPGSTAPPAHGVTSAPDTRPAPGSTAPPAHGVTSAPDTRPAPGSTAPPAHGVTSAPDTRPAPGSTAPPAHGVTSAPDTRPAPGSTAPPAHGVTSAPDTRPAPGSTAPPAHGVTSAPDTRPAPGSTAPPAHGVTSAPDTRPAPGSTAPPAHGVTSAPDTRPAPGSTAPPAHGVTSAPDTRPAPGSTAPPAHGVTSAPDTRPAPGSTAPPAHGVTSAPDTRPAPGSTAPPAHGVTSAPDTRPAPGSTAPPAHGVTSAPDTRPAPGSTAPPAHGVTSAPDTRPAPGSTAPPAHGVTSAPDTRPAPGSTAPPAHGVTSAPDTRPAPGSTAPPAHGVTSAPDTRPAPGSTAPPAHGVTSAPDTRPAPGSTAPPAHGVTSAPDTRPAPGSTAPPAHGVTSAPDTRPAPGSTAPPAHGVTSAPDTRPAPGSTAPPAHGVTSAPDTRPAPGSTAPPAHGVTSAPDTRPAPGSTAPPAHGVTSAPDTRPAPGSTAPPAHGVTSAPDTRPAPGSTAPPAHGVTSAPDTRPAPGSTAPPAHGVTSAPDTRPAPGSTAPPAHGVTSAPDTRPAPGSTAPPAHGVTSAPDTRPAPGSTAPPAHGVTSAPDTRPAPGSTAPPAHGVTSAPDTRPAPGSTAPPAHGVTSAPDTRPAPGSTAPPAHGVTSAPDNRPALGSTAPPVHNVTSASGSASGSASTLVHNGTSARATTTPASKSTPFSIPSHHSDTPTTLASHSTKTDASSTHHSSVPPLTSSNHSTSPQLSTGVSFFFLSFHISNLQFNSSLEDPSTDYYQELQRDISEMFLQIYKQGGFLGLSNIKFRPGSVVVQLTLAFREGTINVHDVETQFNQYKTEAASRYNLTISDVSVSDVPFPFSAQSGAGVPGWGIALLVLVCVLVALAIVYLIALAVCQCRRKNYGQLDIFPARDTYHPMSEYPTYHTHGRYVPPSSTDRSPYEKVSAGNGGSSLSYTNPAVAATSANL

B1: anti-MUC-1 C4 scFv (scFv)
scFv: QVQLQESGPGLVQPSQSLSITCTVSGFSLTAYGVHWIRQSPGKGLEWLGVIWSGGGTDYNPAFISRLNINKDNSKSQVFFKVDSLQLDDRGIYYCVRRNGYFFDSWGQGTTVTVSSSGRFSGGGSGGGGSDIELTQSPASLLCLWGRGPPSHAGPTMVVSTSGYNFIYWSQQKPGQSPKLLIYLSSNLESGVPARVSGSGSRTYFTLNIHPVEEEDAATFYCRHTRELPCTFGGRTKLEIKRAAAGAPVPYPDPLEPRAA
For the molecule B1, in experiment [1], the “percent inhibition of binding with 1 nM of competitor” value (“percent inhibition of binding” for short) was 94%. The Ka in experiment [2] worked out at 1.01e+09 M⁻¹; in experiment [3] it was 2.3e+08 M⁻¹.

B2: B5 scFv (scFv)
scFv: MAQVKLQESGAELVRPGASVTLSCKASGYTFTDYEMHWVKQTPVHGLEWIGAIDPETGGTAYNQKFKGKATLTADKSSSTAYMELRSLTSEDSAVYYCTRDGYYAWFAYWGQGTTVTVSSGGGGLGGGGSGGGGSDIELTQSPAIMSASPGERVTMTCSASSSIRYIYWYQQKPGSSPRLLIYDTSNVAPGVPFRFSGSGSGTSYSLTINRMEAEDAATYYCQEWSGYPYTFGGGTKLELKRAAAGAPVPYPDPLEPRAA
notes: The sheet prints only the panel letter G
B2: the binding result in experiment [4] is “binds”.

B3: anti-MUC-1 3D scFv (scFv, V domains shown)
VH: QVKLQESGPEVVKPGASVKLSCKASGYIFTSYDIDWVRQTPEQGLEWIGWIFPGEGSTEYNEKFKGRATLSVDKSSSTAYMELTRLTSEDSAVYFCARGDYYRRYFDLWGQGTTVTVSS
notes: After the linker stands a short composite of N- and C-terminal pieces of a VL, with no light-chain loops; also called clone 3D
In the case of B3, the “percent inhibition of binding” value in experiment [1] was 50%. The Ka is 2.2e+08 M⁻¹ and > 1e+08 M⁻¹ in experiment [5]; 1.2e+08 to 1.5e+08 M⁻¹ in experiment [6].

B4: anti-MUC-1 12E scFv (scFv)
scFv: QVKLQQSGTEVVKPGASVKLSCKASGYIFTSYDIDWVRQTPEQGLEWIGWIFPGEGSTEYNEKFKGRATLSVDKSSSTAYMELTRLTSEDSAVYFCARGDYYRRYFDLWGQGTTVTVSSRGGGSGGGGSGGGGSDIELTQSPAIMSASPGERVTMTCSASSSIRYIYWYQQKPGSSPRLLIYDTSNVAPGVPFRFSGSGSGTSYSLTINRMEAEDAATYYCQEWSGYPYTFGGGTKLELKRAAAGAPVPYPDPLEPRAA
notes: As printed it begins with a vector leader and ends with the E-tag; Mouse scFv from pCANTAB 5E, expressed in E. coli; also called clone 12E
As for B4, the “percent inhibition of binding” value in experiment [1] came out at 50%. In addition, the Ka in experiment [5] is 1.7e+08 M⁻¹ and > 1e+08 M⁻¹.

B5: 125I-anti-MUC-1 12E scFv, 42 kD fraction (divalent, considered a diabody) (scFv)
scFv: B4 scFv
modifications: 125I-labelled (Chloramine T method)
notes: HPLC (SEC-2000) fraction of iodinated 12E scFv, considered to be a diabody (divalent); also called bivalent form of the 12E scFv
As to B5, the Ka in experiment [7] was around 1.7e+08 M⁻¹.

B6: 125I-anti-MUC-1 12E scFv, 25 kD fraction (monovalent) (scFv)
scFv: B4 scFv
modifications: 125I-labelled (Chloramine T method)
notes: HPLC (SEC-2000) fraction of iodinated 12E scFv, representative of the monovalent scFv; also called monomeric form of the 12E scFv
In experiment [8], B6 returned a Ka of 8.6e+07 M⁻¹.
